The target in this assay is Treponema denticola superoxide reductase (Treponema denticola (strain ATCC 35405)). Put plainly: SEC. In general terms: SEC sorts molecules by how far they enter the pores of the column.

The stoichiometry N is the number of molecules, sites or subunits per partner or assembly.

Take “Treponema denticola superoxide reductase (enzyme)”: the stoichiometry N turned out to be 2.

Source of the values: article PMC3447989.
